Reference: patent US20240261333A1 (published 2024)
Values belong to the binder of their own block, whether it stands above or below them.

What was measured:
Experiment in all cases: co-IP with anti-FLAG, N-FLAG B3GNT2, mass spectrometry
EIF3A = molecular target: T1, EIF3A (human, UniProt Q14152 2-1382)
T1 construct: also called NP_003741.1

CCT3 = molecular target: T2, CCT3 (human, UniProt P49368 1-545)
T2 construct: also called NP_005989.3
T2 sequence (looked up): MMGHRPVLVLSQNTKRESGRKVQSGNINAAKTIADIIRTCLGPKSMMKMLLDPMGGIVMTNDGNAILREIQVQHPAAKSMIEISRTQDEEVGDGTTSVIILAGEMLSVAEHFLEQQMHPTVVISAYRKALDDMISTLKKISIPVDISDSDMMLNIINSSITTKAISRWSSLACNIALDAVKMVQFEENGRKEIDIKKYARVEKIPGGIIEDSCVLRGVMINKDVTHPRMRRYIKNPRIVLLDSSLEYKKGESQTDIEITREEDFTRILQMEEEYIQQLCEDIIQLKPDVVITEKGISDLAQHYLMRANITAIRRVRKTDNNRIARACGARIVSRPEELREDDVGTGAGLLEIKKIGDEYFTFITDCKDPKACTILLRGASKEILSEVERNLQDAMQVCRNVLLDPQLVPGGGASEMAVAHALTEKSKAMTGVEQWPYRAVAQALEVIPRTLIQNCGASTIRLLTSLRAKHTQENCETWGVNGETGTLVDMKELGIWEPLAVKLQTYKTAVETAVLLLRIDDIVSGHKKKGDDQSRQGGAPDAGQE

LGALS7B = molecular target: T3, LGALS7B (human, UniProt P47929 1-136)
T3 construct: also called NP_001035972.1
T3 sequence (P47929 whole entry): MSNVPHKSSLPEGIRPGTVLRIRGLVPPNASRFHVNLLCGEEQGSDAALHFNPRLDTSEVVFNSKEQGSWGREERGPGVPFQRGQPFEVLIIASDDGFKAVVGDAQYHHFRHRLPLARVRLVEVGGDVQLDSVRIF

RBM14 = molecular target: T4, RBM14 (human, UniProt Q96PK6 1-669)
T4 construct: also called XP_006319.1
T4 sequence (looked up): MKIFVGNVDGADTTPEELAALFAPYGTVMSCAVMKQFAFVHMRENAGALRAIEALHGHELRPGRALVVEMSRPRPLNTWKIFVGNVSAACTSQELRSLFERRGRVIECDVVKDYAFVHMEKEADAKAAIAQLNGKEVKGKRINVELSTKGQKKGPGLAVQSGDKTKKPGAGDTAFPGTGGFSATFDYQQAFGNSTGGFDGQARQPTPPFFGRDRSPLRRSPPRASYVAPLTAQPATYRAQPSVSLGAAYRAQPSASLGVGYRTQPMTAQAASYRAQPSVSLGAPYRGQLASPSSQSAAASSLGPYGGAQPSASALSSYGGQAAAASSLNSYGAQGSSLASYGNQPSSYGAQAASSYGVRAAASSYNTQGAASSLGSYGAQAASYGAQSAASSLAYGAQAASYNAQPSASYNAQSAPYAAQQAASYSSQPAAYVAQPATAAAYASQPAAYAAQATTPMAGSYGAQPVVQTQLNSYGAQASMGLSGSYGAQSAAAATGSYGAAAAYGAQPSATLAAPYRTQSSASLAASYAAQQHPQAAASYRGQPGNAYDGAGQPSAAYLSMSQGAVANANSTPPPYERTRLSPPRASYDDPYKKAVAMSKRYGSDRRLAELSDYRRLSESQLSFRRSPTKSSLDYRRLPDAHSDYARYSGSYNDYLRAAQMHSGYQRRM

T1 sequence (Q14152 2-1382 limits assumed): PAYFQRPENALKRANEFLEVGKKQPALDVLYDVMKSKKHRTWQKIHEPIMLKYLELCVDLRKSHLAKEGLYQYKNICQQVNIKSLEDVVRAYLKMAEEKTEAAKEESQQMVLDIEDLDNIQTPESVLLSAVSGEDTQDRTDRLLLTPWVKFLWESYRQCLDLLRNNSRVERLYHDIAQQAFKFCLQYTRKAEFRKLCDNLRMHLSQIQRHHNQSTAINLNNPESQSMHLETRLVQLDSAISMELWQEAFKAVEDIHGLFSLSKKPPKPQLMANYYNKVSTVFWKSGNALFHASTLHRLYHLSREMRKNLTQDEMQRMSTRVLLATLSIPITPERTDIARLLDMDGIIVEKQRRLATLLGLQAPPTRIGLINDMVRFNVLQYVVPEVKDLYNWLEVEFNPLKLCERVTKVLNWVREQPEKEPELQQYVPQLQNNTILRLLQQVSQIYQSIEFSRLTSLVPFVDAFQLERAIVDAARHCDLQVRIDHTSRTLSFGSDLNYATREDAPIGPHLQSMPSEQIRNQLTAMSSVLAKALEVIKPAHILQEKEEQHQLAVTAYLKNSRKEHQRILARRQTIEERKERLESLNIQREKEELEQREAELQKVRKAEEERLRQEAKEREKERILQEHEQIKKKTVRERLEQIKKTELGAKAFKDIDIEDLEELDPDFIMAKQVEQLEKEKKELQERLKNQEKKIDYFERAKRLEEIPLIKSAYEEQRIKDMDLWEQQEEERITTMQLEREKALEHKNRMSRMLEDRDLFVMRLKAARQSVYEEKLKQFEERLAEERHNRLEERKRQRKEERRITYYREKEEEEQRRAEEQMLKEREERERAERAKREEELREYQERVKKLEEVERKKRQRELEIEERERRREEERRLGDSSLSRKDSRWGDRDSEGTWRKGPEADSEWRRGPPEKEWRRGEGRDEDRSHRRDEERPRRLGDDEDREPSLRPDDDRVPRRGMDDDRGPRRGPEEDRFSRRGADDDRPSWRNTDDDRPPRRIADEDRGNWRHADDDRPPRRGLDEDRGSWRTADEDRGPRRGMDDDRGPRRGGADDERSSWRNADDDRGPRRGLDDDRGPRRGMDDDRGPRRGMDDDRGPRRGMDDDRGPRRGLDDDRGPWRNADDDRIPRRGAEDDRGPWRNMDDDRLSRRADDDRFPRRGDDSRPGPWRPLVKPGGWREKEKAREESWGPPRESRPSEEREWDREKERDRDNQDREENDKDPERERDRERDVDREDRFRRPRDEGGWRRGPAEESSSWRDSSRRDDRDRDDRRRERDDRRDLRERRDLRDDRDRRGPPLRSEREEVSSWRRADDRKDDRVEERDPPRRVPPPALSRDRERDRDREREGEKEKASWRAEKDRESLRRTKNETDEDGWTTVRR

co-IP mass spectrometry count (EIF3A): 2 | co-IP mass spectrometry count (CCT3): 0 | co-IP mass spectrometry count (LGALS7B): 7
B1: N-terminal FLAG tagged B3GNT2 (enzyme, human, UniProt Q9NY97 1-397, looked up)
chain: MSVGRRRIKLLGILMMANVFIYFIMEVSKSSSQEKNGKGEVIIPKEKFWKISTPPEAYWNREQEKLNRQYNPILSMLTNQTGEAGRLSNISHLNYCEPDLRVTSVVTGFNNLPDRFKDFLLYLRCRNYSLLIDQPDKCAKKPFLLLAIKSLTPHFARRQAIRESWGQESNAGNQTVVRVFLLGQTPPEDNHPDLSDMLKFESEKHQDILMWNYRDTFFNLSLKEVLFLRWVSTSCPDTEFVFKGDDDVFVNTHHILNYLNSLSKTKAKDLFIGDVIHNAGPHRDKKLKYYIPEVVYSGLYPPYAGGGGFLYSGHLALRLYHITDQVHLYPIDDVYTGMCLQKLGLVPEKHKGFRTFDIEEKNKNNICSYVDLMLVHSRKPQEMIDIWSQLQSAHLKC
notes: FLAG-tagged ORF overexpressed in cells; pulled down from lysate with mouse anti-FLAG; also called N-FLAG B3GNT2; N-term FLAG; not shown: N-terminal FLAG tag

co-IP/MS count, N-term FLAG (RBM14): 3
B2: N-terminal FLAG tagged B3GNT2 (enzyme, human, UniProt Q9NY97 1-397, looked up)
chain: B1 chain
notes: FLAG-tagged ORF overexpressed in A375 cells; pulled down from the lysate with mouse anti-FLAG; also called N-FLAG B3GNT2; N-term FLAG; not shown: N-terminal FLAG tag
